Measured values as given in the supplement of paper PMC10567573.

B1: TRIM55 (parent)
chain: YKSFSKEQQTMDNLEKQLICPICL

Variants of: B1
Experiment: protein stability index of a GFP-peptide fusion (GPS, HEK-293T) (PSI 1-6); higher = more stable
Conditions: c terminus: a fixed tail appended
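Further: lentivirally expressed fusions sorted by FACS into six bins by GFP to DsRed ratio, PSI derived from sequencing read proportions per bin multiplied by bin number.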

Variant	protein stability index
YKNFSKEQQTMDNLEKQLICPICL [S3N]	2.32
YKPFSKEQQTMDNLEKQLICPICL [S3P]	2.05
YKQFSKEQQTMDNLEKQLICPICL [S3Q]	2.2
YKRFSKEQQTMDNLEKQLICPICL [S3R]	2.43
YKTFSKEQQTMDNLEKQLICPICL [S3T]	2.69
YKVFSKEQQTMDNLEKQLICPICL [S3V]	2.07
YKWFSKEQQTMDNLEKQLICPICL [S3W]	2.18
YKYFSKEQQTMDNLEKQLICPICL [S3Y]	1.44
YKSASKEQQTMDNLEKQLICPICL [F4A]	2.74
YKSCSKEQQTMDNLEKQLICPICL [F4C]	2.59
YKSDSKEQQTMDNLEKQLICPICL [F4D]	2.43
YKSESKEQQTMDNLEKQLICPICL [F4E]	2.49
YKSGSKEQQTMDNLEKQLICPICL [F4G]	2.49
YKSHSKEQQTMDNLEKQLICPICL [F4H]	2.8
YKSISKEQQTMDNLEKQLICPICL [F4I]	2.23
YKSKSKEQQTMDNLEKQLICPICL [F4K]	2.63
YKSLSKEQQTMDNLEKQLICPICL [F4L]	2.27
YKSMSKEQQTMDNLEKQLICPICL [F4M]	2
YKSNSKEQQTMDNLEKQLICPICL [F4N]	2.45
YKSPSKEQQTMDNLEKQLICPICL [F4P]	2.9
YKSQSKEQQTMDNLEKQLICPICL [F4Q]	2.37
YKSRSKEQQTMDNLEKQLICPICL [F4R]	2.66
YKSSSKEQQTMDNLEKQLICPICL [F4S]	2.64
YKSTSKEQQTMDNLEKQLICPICL [F4T]	2.44

Variant	protein stability index
YKSVSKEQQTMDNLEKQLICPICL [F4V]	2.24
YKSWSKEQQTMDNLEKQLICPICL [F4W]	1.74
YKSYSKEQQTMDNLEKQLICPICL [F4Y]	2.34
YKSFAKEQQTMDNLEKQLICPICL [S5A]	1.89
YKSFCKEQQTMDNLEKQLICPICL [S5C]	2.73
YKSFDKEQQTMDNLEKQLICPICL [S5D]	2.18
YKSFEKEQQTMDNLEKQLICPICL [S5E]	2.26
YKSFFKEQQTMDNLEKQLICPICL [S5F]	1.71
YKSFGKEQQTMDNLEKQLICPICL [S5G]	2.13
YKSFHKEQQTMDNLEKQLICPICL [S5H]	1.81
YKSFIKEQQTMDNLEKQLICPICL [S5I]	1.96
YKSFKKEQQTMDNLEKQLICPICL [S5K]	2.48
YKSFLKEQQTMDNLEKQLICPICL [S5L]	1.34
YKSFMKEQQTMDNLEKQLICPICL [S5M]	2.11
YKSFNKEQQTMDNLEKQLICPICL [S5N]	2.4
YKSFPKEQQTMDNLEKQLICPICL [S5P]	2.07
YKSFQKEQQTMDNLEKQLICPICL [S5Q]	2.19
YKSFRKEQQTMDNLEKQLICPICL [S5R]	2.11
YKSFTKEQQTMDNLEKQLICPICL [S5T]	1.92
YKSFVKEQQTMDNLEKQLICPICL [S5V]	1.99
YKSFWKEQQTMDNLEKQLICPICL [S5W]	1.37
YKSFYKEQQTMDNLEKQLICPICL [S5Y]	2.26
YKSFSAEQQTMDNLEKQLICPICL [K6A]	2.91
YKSFSCEQQTMDNLEKQLICPICL [K6C]	2.41

Variant	protein stability index
YKSFSEEQQTMDNLEKQLICPICL [K6E]	2.04
YKSFSFEQQTMDNLEKQLICPICL [K6F]	1.3
YKSFSGEQQTMDNLEKQLICPICL [K6G]	2.15
YKSFSHEQQTMDNLEKQLICPICL [K6H]	1.85
YKSFSIEQQTMDNLEKQLICPICL [K6I]	1.85
YKSFSLEQQTMDNLEKQLICPICL [K6L]	2.91
YKSFSMEQQTMDNLEKQLICPICL [K6M]	1.57
YKSFSNEQQTMDNLEKQLICPICL [K6N]	2.04
YKSFSPEQQTMDNLEKQLICPICL [K6P]	2.05
YKSFSQEQQTMDNLEKQLICPICL [K6Q]	2.29
YKSFSREQQTMDNLEKQLICPICL [K6R]	2.63
YKSFSSEQQTMDNLEKQLICPICL [K6S]	2.14
YKSFSTEQQTMDNLEKQLICPICL [K6T]	2.09
YKSFSVEQQTMDNLEKQLICPICL [K6V]	1.49
YKSFSWEQQTMDNLEKQLICPICL [K6W]	2.51
YKSFSYEQQTMDNLEKQLICPICL [K6Y]	1.98
YKSFSKAQQTMDNLEKQLICPICL [E7A]	2.08
YKSFSKCQQTMDNLEKQLICPICL [E7C]	1.98
YKSFSKDQQTMDNLEKQLICPICL [E7D]	2.29
YKSFSKFQQTMDNLEKQLICPICL [E7F]	1.87
YKSFSKGQQTMDNLEKQLICPICL [E7G]	1.53
YKSFSKHQQTMDNLEKQLICPICL [E7H]	2.36
YKSFSKIQQTMDNLEKQLICPICL [E7I]	2.4
YKSFSKKQQTMDNLEKQLICPICL [E7K]	2.25

Variant	protein stability index
YKSFSKLQQTMDNLEKQLICPICL [E7L]	1.35
YKSFSKMQQTMDNLEKQLICPICL [E7M]	2.37
YKSFSKNQQTMDNLEKQLICPICL [E7N]	2.18
YKSFSKPQQTMDNLEKQLICPICL [E7P]	2.27
YKSFSKQQQTMDNLEKQLICPICL [E7Q]	1.67
YKSFSKRQQTMDNLEKQLICPICL [E7R]	1.87
YKSFSKSQQTMDNLEKQLICPICL [E7S]	1.67
YKSFSKTQQTMDNLEKQLICPICL [E7T]	1.96
YKSFSKVQQTMDNLEKQLICPICL [E7V]	1.6
YKSFSKWQQTMDNLEKQLICPICL [E7W]	1.83
YKSFSKYQQTMDNLEKQLICPICL [E7Y]	1.72
YKSFSKEAQTMDNLEKQLICPICL [Q8A]	2.65
YKSFSKECQTMDNLEKQLICPICL [Q8C]	1.96
YKSFSKEDQTMDNLEKQLICPICL [Q8D]	2.07
YKSFSKEEQTMDNLEKQLICPICL [Q8E]	2.3
YKSFSKEFQTMDNLEKQLICPICL [Q8F]	1.54
YKSFSKEGQTMDNLEKQLICPICL [Q8G]	2.83
YKSFSKEHQTMDNLEKQLICPICL [Q8H]	2.37
YKSFSKEIQTMDNLEKQLICPICL [Q8I]	2.1
YKSFSKEKQTMDNLEKQLICPICL [Q8K]	1.8
YKSFSKELQTMDNLEKQLICPICL [Q8L]	1.75
YKSFSKEMQTMDNLEKQLICPICL [Q8M]	1.96
